Measurements as given in article PMC12350261.

Legend:
[1] = molecular target: human D-glucuronyl C5-epimerase Glce^167-617 (human); test: dynamic light scattering; DynaPro NanoStar, room temperature, 2 uM Glce^167-617; hydrodynamic radius turned into an estimated molecular weight
[2] = molecular target: human D-glucuronyl C5-epimerase Glce^167-617 (human); test: SEC; Superdex 200 10/300 GL, 18 C, 20 mM Tris-HCl pH 8.0, 200 mM NaCl, 1 mM DTT, 100 ug loaded, calibrated with gel filtration standard; apparent molecular weight
[3] = molecular target: human D-glucuronyl C5-epimerase Glce^167-617 (human); test: crystal structure; apo Glce^167-617, sitting-drop vapour diffusion at 20 C, 0.2 M ammonium sulfate, 0.1 M Tris pH 8.5, 22% PEG 3,350; space group C 1 2 1, two molecules in the asymmetric unit; 2.88 A

- stoichiometry N [1]: 2
- stoichiometry N [2]: 2
- stoichiometry N [3]: 2
Substance: human D-glucuronyl C5-epimerase Glce^167-617 (domain or fragment)
